Assay results published in the nanobody polyreactivity screen of Harvey et al. (2022).

Test: yeast display, Sf9 membrane polyspecificity reagent, FACS + sequencing; frameworks hold sequencing errors
Procedure, shortened: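 Sorting gates, low and high (top ~1%), were placed on anti-HA fluorescence to track expression and on streptavidin fluorescence to track reagent binding. A clone's polyreactivity label is taken from the gate it came out of. The reagent was 10% biotinylated, detergent-solubilized Sf9 membrane, applied for 1 hour at 4 °C to galactose-induced yeast display cells.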

| Sequence | polyreactivity (PSR sort gate) |
| --- | --- |
| QVQLVESGGGLVQAGGSLRLSCAASGSTFTRYAMGWYRQAPGKERELVASISRSGGRTYYADSVKGRFTISRDNAKNTVYLQMNSLKPEDTAVYYCAKLYLVTKSLLEITGGKYDGDYWGQGTQVTVSS | high polyreactivity |
| QVQLVESGGGLVQAGGSLRLSCPASGLTFGGNAMGWYRQEPGKERELVAAISWSDDTTDYADSVKGRFTISRDNAKNTVYLQMNSLKPEDTAVYYCAARLPFEHVDYWGQGTQVTVSS | low polyreactivity |
| QVQLVESGGGLVQAGGSLSLSCAASGSIFGTNAMGWYRQAPGKERELVAAISSSGASTYYADSVKGRFTISRDNAKNSVYLQMNSLKPEDTAVYYCARGYTYQSSSFYYWGQGTQVTVSS | low polyreactivity |
| QVQLVESGGGLVQAGGSLRLSCAASGSNFGPNAMGWYRQAPGKERELVAAIRSNGGRTYYADSVKGRFTISRDNAKNTVYLQMNRLKPEDTAVYYCAAPHYPYDTPYGYWGHGTQVTVSS | low polyreactivity |
| QVQLVESGGGLVQAGGSLRLSCAASAYTFDGYAMGWYRQAPGKERELVAAINSGGGTYYADSVKGRFTISRDNAKNSVYLQMNSLKPEDTPVYYCNASVKPSNVWSRGYDYWGQGTQVTVSS | low polyreactivity |
| QVQLVESGGGLVQAGGSLRLSCAASGRTFLFNGMGWYRQAPGKERELVASITRGGSTYADSVKGRFTISRDNAKNTVYLQMNSLKPEDTAVYYCAALTSRTYLWTTRPYDYWGQGTQVTVSS | high polyreactivity |
| QVQLVESGGGLVQAGGSLRLSCAASGFTFVDNAMGWYRQAPGKERELVAVIDFNDGTTYYADSVKGRFTISRDNAKNTVYLLMNSLKPEDTEVYYCNVDSSLILWVEYDYWGQGTQVTVSS | low polyreactivity |
| QVQLVESGGGLVQAGGSLRLSCAASGFIFYTYAMGWYRQAPGKERELVAGINSGGDTNYADSVKGRFTISRDNAKNTVYLQINSLKPEDTAVYYCAATSYVHKYYGYFGAIKYEYWGHGTQVTVSS | low polyreactivity |
| QVQLVESGGGLVQAGGSLRLSCAASGRTFYFYAMGWYRHAPGKERELVAAITSGGGRTNYADSVKGRFTISRDNAKNTVYLQMNSLKPEDTSVYYCAAVLYGQYTGKYYFWGQGTQVTVSS | high polyreactivity |
| QVQLVESGGGLVQAGGSLRLSCAASGRIFHYYAMGWYRQAPGKERELVAAISYSGTRTYYADSVKGRFTISRDNAKNTVYLQMNSLNPEDTAVYYCNAARSTNFDYWGQGTQVTVSS | high polyreactivity |
| QVQLVESGGGLVQARGSLRLSCAASGLTFYYYVMGWYRQAPGKERELVAAISYSGGRTYYADSVKGRFTISRDNAKNTVYLQMNSLKPEDTAVYYCAAQSRYGGKFYYWGQGTQVTVSS | high polyreactivity |
| EVQLVESGGGLVQAGGSLRLSCAASGFIFVSYAMGWYRQAPGKERELVAAISWSGGNTYYADSVKGRFTISRDNAKNTVYLQMNSLKPEDTAVYYCNTDKRSYPTHRRDFGYWGQGTQVTVSS | low polyreactivity |
| QVQLVESGGGLVQAGVSLRLSCAASGGTLSNYAMGWYRQAPGKERELVAAITYRGGSTYYADSVKGRFTISRDNAKNTVYLQMNSQKPEDTAVYSCAAPGFKPFSFDSWGQGTQVTVSS | low polyreactivity |
| QVQLVESGGGLVQAGGSLRLSCAASGSTFGTYAMGWYRQAPGKERELVAAISWSGGSTYYADSVKGRFTISRDKAKNTVYLQMNSLKPEDTAVYWGQGTQVTVSS | low polyreactivity |
| QVQLVESGGGLVQAGGSLRIISAASGSTFTRYTMGWYRQAPGKEMEFVAAISFSGGSTYYADSVKGRFTIARDNAKNTVYLEMNSLKPEDTAVYYCAASAHCYRPARDYWGQGTQVTVSS | low polyreactivity |
| QVQLEESGRGLDQAGVSLRLSCAASVSTFAGYAMGWYRQAPVKERELVATITYSGGSTYYADSVKGRFTISRDNAKNTVYLQMNSLKPEDTAVYYCAKKASDWWGYEYWGQGTQVTVSS | low polyreactivity |
| QVQLVESGGGLVQAGGSLRLSCAASGRTFRYNAMGWYRQAPGKERELVAAITWSGGSTYYADSVKGRFTISRDNAKNTVYLQMNSLKPEDTAVYYCAKGRRRSHPYDYWGQGTQVTVSS | high polyreactivity |
| QVQLVESGGGLVQAGGSLRLSCAASGFIFGFYAMGGYRQAPGKERELVAAISWSGGSTYYADSVKGRFTISRDNAKNTVYLQMNSLKPEDTAVYYCAAYFYYLDDAVTYDYWGQGTQVTVSS | low polyreactivity |
| QVQLVESGGGLVKEGGSLRLSCAASGSIFDWYVMGWYRQAPRKERELVATITRDGSTNYADSVKGRFTISRDNAKNTVYLQMNSLKPEDTAVYYCAAVIRSNRLYDGGYWGQGTQVTVSS | low polyreactivity |
| QVQHVESRGGLVQAGGSLRLSCAASGRIFGTYGMGRYRQAPGKERELVAAINWRGGSTYYADSVKGRFTISRDNAKNTVYLQMNSLIPEDTAVYYCNARLYRKRLGYWGQGTQVTVSS | high polyreactivity |
| QVQQQESGGGQVQAGGSLRLSCAASGTIFLYAFLGRYRQAPGKERELVAAIDVGTTTNYADSVKGRFTIRRDNANNTVYLQMNSLKPEDTAVYYCAATLGYLDDLGYWGQGTQVTVSS | low polyreactivity |
| QVQLVESGGGLVQAGGSLRLSFAASGSISLYYAMGWYRKAPGKETELVAAISTRGGSTYYADSVKGRFTISRDNAKNTVYLQMNSLKPEDTAVYYCAARTRLTADPRYGISSKMYYWGQGTQVTVSS | high polyreactivity |

| Sequence | polyreactivity (PSR sort gate) |
| --- | --- |
| QVQLVESGGGLVQAGGSLRLSCAASGSTLFSYAMGWYRQAPGKEREFVAAISRRGGSTYYEDSVKGRFTISRDYAKNTVYLQMNSLKPEETAVYYCAARDSSYNWYGYWGQGTQVTVSW | high polyreactivity |
| QVQLVESAGGLVQAGGSLRLSCAASGSIFVPNVMGWYRQAPGKERELVATITRSTSTYYADSVKGRFTISRDNAKNTVYLQMNSLKPEDTAVYYCAAVWEWYSKYTRFYYWGQGTQVTVSS | high polyreactivity |
| QVQLVESGGGLVQAGGSLRLSCAASGSTFGKNAMGWYRQAPGKERELVAAISTSGTRTFFADSVKGRFTISRDNAKNTVYLQMNSLKPEDTAFYYWNAGRSSRAYYYWGQGTQVTVSS | high polyreactivity |
| QVQLVESGGGLVQAGGSLRLSCASSGFIFASYAMGWYRQAPGKERELVAAISYRGGTTYYADSVKGRFTISRDNAKNTVYLQMNSLKPEDTAVYYCAADSPENRYNYWGQGTQVTVSS | high polyreactivity |
| QVHLVESGGGLVQAGGSLRLSCAASGSNCTYYAMGWYRQAPGKERELVAAIDFSGASTSYADSVKGRFTISRDNAKNTVYFQMNSLKPEDTAVYYCAAVLYWYPPYYYWGQGTQVTVSS | low polyreactivity |
| QVQLVESGGGLVQAGGSLRLSCAASGGIFSLYAMGWYRQAPGKEREFVAAISFTGASTYYADSVKGRFTISRDNAKNTVYLQMNSLKPEDTAVYYCAAYWDAEGRRYTRLDYWGQGTQVTLSS | low polyreactivity |
| QVQLVESGGGLVQAGGSLRLSCAASGRILDKYAMGWYRQAPGKERELVARIRFSGGDTYADSVKGRFTISRDNAKNTVYLQMNSLKPEDTAVYYCNKDRRNRWYAFDYWGQGTQVTVSS | low polyreactivity |
| QVQLVESGGGLVQAGGSLRLSCAASGFTFDENAMGWYRQAPGINYSGASTYYADSVKGRFTISRDNAQNSVYLQMNSLKPEDTAVYYCAAEVVAQMNYWGQGTQVTVSS | low polyreactivity |
| QVQLVESGGGLVQAGGSLRLSCAASGYIFYNAMGWYRQAPGKERELVAAISSSGGTTYYADSVKGRFTISRDNAKNTVFLQMNSLKPEDTAVYYCAATFRKRYPSRYDSWGQGTQVTVSS | low polyreactivity |
| QVLLVESGGGLVQAGGSLRVSCAASGLIFSRYTMGGYRQAPGKERELVAAISKTGSSTYYAVSVKGRFTISRDNAKNTVYLQMKSLKPEDTAVYYCATTPTGRKKGDYWGQGTQVTVSS | high polyreactivity |
| QVQLVDSGGGLVQAGGSLRLSCAASGSTFYGYAMGWYRQAPGKERELVATISSSGAITYYADSVKWRFTISRDNAKNTVYLQMNRLKPEDPAVYYCARTGSLLSQVWYNYWGQGTQVTVSS | low polyreactivity |
| QVQLVESGGGLVQAGGSLRLSCAASGLTFYVYAMGWYRQAPGKERELVAAINWSGGNTYYADSVKGRFTISRDNAKNTVYLQMNSLKPEDTAVYYCAAELYYPVGFDYWGQGTQVTVSS | high polyreactivity |
| QVQLHESGGGLVQAGGSLRLGCAPSGNISHAAYMGWYRQAPGKEREFVAAIAAGSNPNYADSVKGRFTISRDNAKNTVYLQMNSLKPEDTAVFYCAVASYARVQYEYWGQGTQVTVNS | low polyreactivity |
| QVQLVESGGGLVQAGGSLRLSCAACGRIFGYYAMGWYRQAPGKERELVAAITGVGRTNYADSVKGRFTISRDNAKNTVYLQMNSLKPEDTAVYYCNVVRVYRYDYWGQGTQVTVSS | high polyreactivity |
| QVQLVESGGGRVQAGGTHRLRSAASGFTFRQYAMGWYRPAPGKERELLAAISRSGSRTYYADSVKRRFTISRDNAKHTVYLQMNCLKPEDTAVYYCYAVFSTFTGEYYWGHGTQVTVSS | high polyreactivity |
| QVQLVESGGGLVQAGGSLRLSCAASGRTFNGYAMGWYRQAPGKERELVASISWSGGRTYYADSVKGRFTISRDNAKNTVYFQMNSLKPEDTAVYYCAATFVNVVGYDYWGQGTQVTVST | high polyreactivity |
| QVQLVESGGGLVQAGGSLRLSCADSGSIFRYYFMGCYRQAPGKERELVSAISSGGRTYYADSVKGRFTISRDNAKNTVYLQMNSLNPEDTAVYYCNDQGLFYCEMDYWGQGTQVTVSS | high polyreactivity |
| QVLLQESGGLGQAGCSLPMSCAASGSISTALSMGWYRQAPGKERELVATISDGASTNYADSVKGRFTISRVNAKNTVYLQMNSLKPEDTEVYYCADQSQYRQDHRYWGQGTQVTVSS | high polyreactivity |
| QVQLVESGGGLVQAGGSLRLSCAASGRIFYNYAMRWYRQAPGKERELVAAISGSGGSTYYADSVKGRFTISRDNAKNTVYLQMNSLKPEDTAVYYCSTSGPQYYSRNFDYWGQGTQVTVSS | low polyreactivity |
| QVQLVESGGGLVKAGCSLRLRCAASGGTFSYYAMGLYRQAPGKERELVAAISRSSSRTYYADSVKGRFTISRDNAKNTVFLQMNSLKPEDTAVYYCAADRVSYSGRTPKGQRYDYWGQGTQVTVSS | high polyreactivity |
| QVQLVESGGGLVQAGGSLRLSCAASGGTFGSNTMGWYRQAPGKERELVAAITSGVSTNYADSVKGRFTISRDNAKNTVYLQMISLKPEDTAVYYCAKDLWSEEYETIITSYGFDYWGQGTQVTLSS | low polyreactivity |
